Patent US6451571B1, “Thymidine kinase mutants” (University of Washington, priority 1994, dated 2002)
Read-outs that look alike come from different tables or passages of the source.

Assays:
ts13 BHK tk− cells = assay: ED50 determination with GCV or ACV in transfected BHK tk− cells (Alamar Blue); type: cell-based, baby hamster; conditions: pooled G418-resistant transfectants, 4 days on nucleoside analog
Description: Briefly, the cell transfections are performed as follows. Approximately 5×10^5 ts13 BHK tk^− cells (ATCC CRL-1632) are plated on 100 mm dishes in DMEM+10% calf serum. For each transfection 1 μg of pSV2neo and 10 μg of a pCMV construct (pCMV, pCMV:TK-wrong (HSVTK in the wrong orientation relative to the promoter), pCMV:HSVTK, pCMV:30, pCMV:75 or pCMV:132 DNA) in 0.25M CaCl2 are mixed with 0.5 ml 2×BBS (see Chen and Okayama) and preincubated at 37° C. at 2.5% CO2 […]. The CaCl2/DNA mix is added dropwise to the plates and mixed in well. After a 24 hour incubation at 37° C. in a 2.5% CO2 wet incubator, the cells are rinsed twice with Dulbecco PBS minus Ca/Mg and fed with fresh DMEM+10% calf serum. Plates are incubated at 37° C. with 6% CO2. After 72 hours post-transfection the cells are split 1:3 and plated in DMEM+10% calf serum containing G418 at 600 μg/ml.
The cells are selected on G418 (600 μg/ml) at 37° C. for 17 days. During this time the plates are pooled (for each DNA transfection) and split three times at a ratio of 1:3. Approximately 30-40 clones are selected in this manner for each transfected DNA containing a tk gene in the correct orientation. The pCMV and pCMV:TK-wrong transfections yielded between 130 and 140 clones each. […]
Determination of the fluorescence level of cells incubated in the presence of Alamar Blue directly relates to cell viability.

[1] = Enzyme kinetics of purified TK, ganciclovir; type: biochemical; conditions: substrate ganciclovir
Description: (§1) A single colony of pET23d:HSVTK, pET23d:30, pET23d:75 and pET23d:132 in BL21(DE3)tk^− cells is used to inoculate 5 ml of M9ZB medium (1% tryptone, 0.5% NaCl, 1×M9 salts, 1 mM MgSO4, 100 μM CaCl2 and 0.2% glucose) containing cabenicillin at 20 μg/ml. The culture is incubated at 37° C. overnight. The following day the 5 ml culture is used to inoculate 1L M9ZB+cabenicillin at 20 μg/ml and the culture allowed to grow at 37° C. to OD600 0.1. At that point IPTG is added to 0.4 mM and the culture incubated a further 3 hours. The cells are chilled on ice, pelleted by centrifugation and the pellets washed once in cell wash buffer (50 mM Tris, pH 7.5, 5mM EDTA, 10% sucrose) prior to freezing the pellets at −70° C. […]
(§2) A thymidylyl-sepharose column is used for a one step purification procedure (see Example 2). […] The extent of purification is monitored by Coomassie stained SDS:PAGE analysis and the concentration of purified protein determined using the BioRad Reagent (Bradford Reagent). […]
(§3) The kinetics of thymidine, ganciclovir and acyclovir phosphorylation by the wild-type, mutant 30 and 75 thymidine kinase enzymes with variant concentrations of radioactive nucleoside substrate are determined essentially as described in Example 3. Km and Vmax values are determined from double reciprocal plots and kcat values are calculated using the equation Vmax=kcat [Eo] where [Eo] is the total enzyme concentration. […]

[2] = Enzyme kinetics of purified TK, thymidine; type: biochemical; conditions: substrate thymidine
Description: as §1, §2, §3

BHK tk− cells = assay: Sensitivity of guanylate kinase transfectant pools to ACV in TK expressing clones; type: cell-based, baby hamster; conditions: three days with ACV
Description: pREP8-7, pREP8-7:hgmk and pREP8-7:mgmk are used to transfect BHK tk, TK-transfected clone C3 and 75-transfected clone D4. Histidinol is used to select pools of stable transfectants and to isolate individual clones.
As in Example 8, pools of transfectants are placed in 96 well microtiter dishes at 1000 cells/well. Eight replicates are incubated for three days in the presence of various GCV or ACV concentrations.

Molecule: WT: wild-type HSV-1 thymidine kinase with McKnight sequence (pT7:HSVTKII and derived vectors)
- EC50 (ts13 BHK tk− cells; read-out: ED50 ACV): 25 µM
- EC50 (ts13 BHK tk− cells; read-out: ED50 GCV): 20 µM
- Km [1]: 47.6 µM
- kcat ([1]; per active site): .050 s⁻¹
- Km [2]: 380 nM
- kcat ([2]; per active site): .230 s⁻¹

B1: Guanylate kinase: human or murine guanylate kinase expressed from pREP8-7 in wild-type TK clone C3 cells (protein, UniProt Q16774 2-197, looked up)
Guanylate kinase: SGPRPVVLSGPSGAGKSTLLKRLLQEHSGIFGFSVSHTTRNPRPGEENGKDYYFVTREVMQRDIAAGDFIEHAEFSGNLYGTSKVAVQAVQAMNRICVLDVDLQGVRNIKATDLRPIYISVQPPSLHVLEQRLRQRNTETEESLVKRLAAAQADMESSKEPGLFDVVIINDSLDQAYAELKEALSEEIKKAQRTGA
- increased sensitivity to ACV relative to TK expression alone (BHK tk− cells): approximately 2 fold
